According to patent publication US20110135636A1 (SYMPHOGEN A S, published 2011):
Substitutions are numbered along the chain they refer to.

B1: antibody 1030 (antibody, human IgG1, kappa, V domains shown)
VH: EVQLVESGGGLVKPGGSLKLSCAASGFTFSSYALSWVRQTPERRLEWVASISGVGSTYFPDSVKGRFTMSRDNARNILYLQMSSLRSEDTAMYYCARGSDGYFYAMDYWGQGTSVTVSS
VL: DIVLTQSPASLAVSLGQRATISCRASKSVSTSGYSFMHWYQLKPGQPPKLLIYLASNLESGVPARFSGSGSGTDFTLNIHPVEEEDAATYYCQHSREFPLTFGGGTKLEIKR
notes: Chimeric IgG1 kappa
B2: antibody 992 (antibody, human IgG1, kappa, V domains shown)
VH: EVQLQQPGSELVRPGASVKLSCKASGYTFTSYWMHWVKQRPGQGLEWIGNIYPGSRSTNYDEKFKSKATLTVDTSSSTAYMQLSSLTSEDSAVYYCTRNGDYYVSSGDAMDYWGQGTSVTVSS
VL: DIQMTQTTSSLSASLGDRVTISCRTSQDIGNYLNWYQQKPDGTVKLLIYYTSRLHSGVPSRFSGSGSGTDFSLTINNVEQEDVATYFCQHYNTVPPTFGGGTKLEIKR
notes: Chimeric mouse/human IgG1 kappa; the VL entry includes the human kappa constant region
B3: antibody 1347 (antibody, human IgG1, kappa, V domains shown)
VH: QVQLKESGPGLVAPSQSLSITCTVSGFSLTGHGVNWVRQPPGKGLEWLGMIWGDGSTDYNSTLKSRLSISKDNSKSQVFLKMNSLQTDDTARYYCARGYGYLYYFDYWGQGTTLTVSS
VL: ENVLTQSPAIMSASPGEKVTMTCRASSSVSSSYLHWYQQKSGASPKLWIYSTSNLASGVPARFSGSGSGTSYSLTVNSVETEDAATYYCHQYSGFPFTFGSGTKLELKR
notes: Chimeric IgG1 kappa
B4: antibody 1261 (antibody, human IgG1, kappa, V domains shown)
VH: EVQLVESGGGLVKPGGSLKLSCAVSGFTFSSYVMSWVRQTPEKRLEWVATITSGGRNIYYLDSVKGRFTISRDNAKNTLYLQMSSLRSEDTAMYYCARHEDYRYDGYYAMDYWGQGTSVTVSS
VL: QIVLTQSPAIMSASPGEKVTITCSASSSVSYMHWFQQKPGTSPKLWIYSTSNLASGVPARFSGSGSGTSYSLTISRMEAEDAATYYCQQRSSYPYTFGGGTKLELKR
notes: Chimeric IgG1 kappa
B5: antibody 1344 (antibody, human IgG1, kappa, V domains shown)
VH: QVQLKESGPGLVAPSQSLSITCTVSGFSLTIYGVHWVRQPPGKGLEWLGVIWAGGNTNYNSALMSRLSISKDNSKSQVFLKMNSLQTDDTAMYFCARGYGYNLDYWGQGTTLTVSS
VL: DIQMTQTTSSLSASLGDRVTISCSASQGISNYLNWYQQKPDGTVKLLIYYTSSLHSGVPSRFSGSGSGTDYSLTISNLEPEDIATYYCQQYSKLPYTFGGGTKLEIKR
notes: Chimeric IgG1 kappa
B6: antibody 1320 (antibody, human IgG1, kappa, V domains shown)
VH: QVQLQQPGAELVKPGASMKLSCKASGYTFTNYWMHWVKQRPGQGLEWIGEINPSNGRTNYNEKFKSKATLTVDKSSSTAYMQLSSLTSEDSGVYYCAKGGNYYDYDWDYWGQGTTLTVSS
VL: B5 VL with G28D, Y50H, S53T, Y96W
notes: Chimeric IgG1 kappa
B7: antibody 1308 (antibody, human IgG1, kappa, V domains shown)
VH: EVQLQQSGAELVRPGSSVKISCKASGYAFSSYWMNWVRQRPGQGLEWIGQIYPGDGDTNYNGKFKGRATLTANKSSSTAYMQLSSLTSEDSAVYFCARRASSLYDVYPYYFDYWGQGTTLTVSS
VL: B5 VL with S24R, G28D, L46V, S53R, P80Q, Y87F, Y91G, S92N, K93T
notes: Chimeric IgG1 kappa
B8: antibody 1260 (antibody, human IgG1, kappa, V domains shown)
VH: B5 VH with I31T, N56S, S70K, F94Y, G98A, L103F
VL: B5 VL with S30T, T51S, K93E, L94I, I106L
notes: Chimeric IgG1 kappa
B9: antibody 1257 (antibody, human IgG1, kappa, V domains shown)
VH: EVQLQQSGPELVKPGASVKIPCKTSGYTFTDYNMAWVKQSHGKSLEWIGDIIPNNGGAIYNQKFKGKATLTVDKSSSTASMELRSLTSEDTAVYFCARKNIYYRYDGAGALDYWGQGTSVTVSS
VL: QIVLTQSPAIMSASPGEKVTMTCSASSSVSYIYWYQQKPGSSPRLLIYDASNLASGVPVRFSGSGSGTSYSLTISRMEAEDAATYYCQQWSSYPITFGSGTKLEIKR
notes: Chimeric IgG1 kappa
B10: antibody 1208 (antibody, human IgG1, kappa, V domains shown)
VH: EVQLVESGGGLVKPGGSLKLSCAASGFAFSSYDMSWVRQTPEKRLEWVAYIGSGDDNTHYPDSVKGRFTISRHNAKNTLYLQMSSLKSEDTAMYYCARQKYGNYGDTMDYWGQGTSVTVSS
VL: DVVMTQTPLSLPVSLGDQASISCRSSQSLVHSNGNTYLHWYLQKPGQSPKLLIYKVSNRFSGVPDRFSGSGSGTDFTLKISRVEAEDLGVYFCSQSTHVPTFGGGTKLEIKR
notes: Chimeric IgG1 kappa; also called clone 1208
B11: antibody 1284 (antibody, human IgG1, kappa, V domains shown)
VH: QVQLQQPGAELVKPGASVKLSCKASGYTFTSDWMHWMKQRPGQGLEWIGEINPSNGRSSYNEKFKSKATLTVDKSSSTAYMQLSSLTSEDSAVYYCARIGGIYVETYWGQGTLVTVSS
VL: DIVLTQSPASLAVSLGQRATISCRASQSVSTSTYSYMHWYQQKSGQPPKLLIKYASNLESGVPARFSGSGSGTDFTLNIHPVEEEDTATYYCQHSWEIPWTFGGGTKLEIKR
notes: Chimeric IgG1 kappa

target: T1, full length human EGFR expressed on the cell surface (human, UniProt P00533 25-1210); assay: cell ELISA, IgG titrated on unfixed A431-NS cells
T1 construct: whole, on cells; also called EGFR on A431-NS cells; EGFR on HN5 cells
Method: Cell ELISA: The ELISA was performed essentially as described in example 15 with modifications. Cells were left unfixed to allow conformational EGFR flexibility after antibody additions. Briefly, 10,000 A431-NS cells were grown in 96 well ELISA plates containing DMEM with added 0.5% FCS and 1% P/S at 37° C., 5% CO₂ overnight. […] 25 μl DMEM containing 1% BSA was added to wells used for testing of IgG antibodies without added Fab fragments. […] Next, wells were washed four times with PBS and 50 μl of a secondary monoclonal Mouse-anti-Human (Fc specific) HRP conjugate diluted 1:5000 in DMEM containing 1% BSA was added and incubated on ice for 30 min. Finally wells were washed four times with PBS and plates developed by adding 50 μl/well TMB substrate and read at 620 nm every 5-15-30 min. After incubation with substrate the reaction was stopped by addition of 1 M H₂SO₄ and absorbance read at 450 nm. The functional affinity expressed as ED50 values were calculated by subtraction of the average background binding with secondary reagent only, followed by normalization of the binding curves by plotting % maximal binding relative to each antibody tested.
Investigations of antibody induced binding enhancements were determined by concurrent ELISA binding studies, employing same secondary antibody reagent and incubation times.

Binder	Log ED50
B1	0.33
B2	-0.24

target: T2, recombinant human EGFR extracellular domain with 6xHis (human, UniProt P00533 25-645); assay: SPR, reference cycle of the run with mix N=6
T2 construct: In-house produced; also called 6xHis EGFR ECD; soluble human EGFR ECD; not shown: 6xHis tag
Method: (§1) SPR analysis was performed on a Biacore 3000 machine containing four flow cells. A CM5 Biacore chip was conjugated with 10,000 Resonance units (Ru) polyclonal anti-His antibody to flow cells 1-4 according to the manufacturer's instructions. […] Immediately after antigen injection the maximal binding of the Anti-EGFR mAb without competition was established in each flow cell during a reference run. Briefly 5 μl antibody at a concentration of 40 μg/ml was injected over all flow cells with captured EGFR followed by stripping of the antibody/antigen complex with a low pH acid wash (10 sec. contact time with 10 mM Glycine-HCl, pH2). After the determination of Anti-EGFR antibody maximal binding to each flow cell, a competition run was performed during the same Biacore cycle. Flow cells were first saturated with EGFR ECD antigen followed by injection of different reference antibodies or Anti-EGFR antibodies into separate flow cells using the same antigen saturating conditions as outlined above. This step was immediately followed by a second injection of Anti-EGFR antibody over the flow cell saturated with EGFR antigen and competition antibody to minimize the dissociation of either antigen or blocking antibody. Then the antibody/antigen complexes were stripped off with a low pH acid wash (10 sec. contact time with 10 mM Glycine-HCl, pH 2) and the whole cycle beginning with the reference run was repeated with a new Anti-EGFR antibody. The degree of inhibition of tested Anti-EGFR antibodies were determined by comparing the Ru max value of the individual Anti-EGFR antibody before and after competition by introduction of report points recorded two seconds before and after injection of each sample.

Binder	Rumax reference cycle
B1	87 Ru
B3	91 Ru
B2	85 Ru
B4	135 Ru

target: T1, full length human EGFR expressed on the …; assay: cell ELISA, IgG titrated on paraformaldehyde-fixed A431-NS cells
Method: Cell ELISA: The relative binding affinities defined as the molar concentration giving the half maximal OD (ED50) were determined by antibody titrations on A431-NS cells. Briefly, 10,000 A431-NS cells were grown in 96 well ELISA plates containing DMEM with added 0.5% FCS and 1% P/S at 37° C., 5% CO₂ overnight. […] Then 50 μl of a secondary Goat-anti-Human (Fab specific) HRP conjugate diluted 1:5000 in DMEM containing 1% BSA was added and incubated on ice for 30 min. Finally wells were washed four times with PBS and plates developed by adding 50 μl/well TMB Plus substrate and read at 620 nm every 5-15-30 min. After incubation with substrate the reaction was stopped by addition of 1 M H₂SO₄ and absorbance read at 450 nm. The functional affinity expressed as ED50 values were calculated by subtraction of the average background binding with secondary reagent only, followed by normalization of the binding curves by plotting % maximal binding relative to each antibody tested.

Binder	Log ED50
B1	0.17
B2	-0.56

target: T3, wild type full length EGFR purified from A431 cells (human, UniProt P00533 25-1210); assay: competition ELISA, competitor Ab-10; set-up: concentration or dose not given beside the values
T3 construct: mature; Bought; coated on ELISA wells; also called full length EGFR receptor antigen; Sigma E3641
Method: The ELISA was adapted from the descriptions published in Ditzel et al, 1995, The Journal of Immunology, Vol 154, Issue 2 893-906.
An epitope blocking ELISA was performed by diluting full length EGFR receptor antigen to 0.5 μg/ml in PBS; and coating 50 μl/ELISA well overnight at 4° C. […] Finally wells were washed four times with PBS-T and plates were developed by adding 50 μl/well TMB and read at 620 nm every 5-15-30 min. The degree of inhibition was calculated from the formula: % inhibition=(1−(OD competition/OD no competition (PBS)))×100.

Binder	% inhibition
B1	92%
B5	36%
B6	7%
B7	12%
B8	24%
B9	33%
B10	89%
B11	30%
B2	-14%
B4	13%

target: T2, recombinant human EGFR extracellular …; assay: SPR, EGFR ECD without competitor
Method: as §1

Binder	Rumax reference cycle
B3	75 Ru
B2	81 Ru
B4	157 Ru

target: T4, full length Cynomolgus EGFR expressed on CHO cells (Cynomolgus monkey (Macaca fascicularis), UniProt P55245 25-1210 (rhesus entry)); assay: FACS on CHO cells transfected with full length Cynomolgus EGFR
T4 construct: The entry was cloned including the signal peptide; also called Cynomolgus full length EGFR
Method: Bound antibody was detected with a PE labelled goat F(ab′)₂ anti-human IgG FC. Gating was performed on uniform cells (SCC/FCS properties) expressing EGFR. Binding is expressed as % maximal antibody binding at 1 nM concentration.
Briefly quantitative FACS analysis was performed on a BD FACS array Bioanalyzer System to determine the number of EGFR molecules expressed on the surface of CHO cells transfected with either Human or Cynomolgus full length EGFR. […] Antibodies were incubated with cells for 14 hours on a shaker, to promote full antigen saturation at all antibody concentrations tested, while FACS buffer was added 0.02% NaN₃ and temperature kept at 4° C. to prevent receptor internalization. After incubation, cells were pelleted at 1200 RPM for 5 min at 4° C. and resuspended in 200 ul FACS buffer. Next cells were stained with a secondary Goat F(ab′)₂ anti-Human IgG FcGamma PE diluted 1:500 and incubated for 30 min at 4° C. on a shaker. Finally cells were washed twice in FACS buffer and analyzed on a BD FACS array Bioanalyzer System with gating on EGFR expressing CHO cells displaying uniform forward/side scatter properties.

Binder	binding result	EC50 (read off the curve)
B6	no binding (tested: 1 nM)	
B2		~0.01 nM
